In US20240252641A1:

Columns and labels:
[1] = biological target: CD70 on cells (CHO-CD70, JVM-3, U266, Raji, THP-1, T cells) (human) (UniProt P32970); assay: on Raji cells
[2] = biological target: CD70 on cells (CHO-CD70, JVM-3, U266, Raji, THP-1, T cells) (human) (UniProt P32970); assay: on JVM-3 cells
[3] = biological target: CD70 on cells (CHO-CD70, JVM-3, U266, Raji, THP-1, T cells) (human) (UniProt P32970); assay: on U266 cells

Chain of CD70 on cells (CHO-CD70, JVM-3, U266, Raji, THP-1, T cells) (human) (P32970 whole entry): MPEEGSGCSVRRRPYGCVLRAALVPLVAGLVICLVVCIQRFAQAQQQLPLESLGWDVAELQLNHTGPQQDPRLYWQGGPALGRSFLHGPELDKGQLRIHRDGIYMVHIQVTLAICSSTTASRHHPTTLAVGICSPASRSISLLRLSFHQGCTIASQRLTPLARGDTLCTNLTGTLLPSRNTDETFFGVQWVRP

## 1F6 (clone ID in Table 3, alloy mouse hybridoma) (antibody)
[1]
  cell binding: 68900
[2]
  cell binding: 225000
[3]
  cell binding: 239000
